Assay results reported in PMC8877407.
Where “and” joins values, the source holds several entries; their conditions need not be identical. Equal values may be shown once.

Biological target: recombinant L. infantum GDP-mannose pyrophosphorylase (LiGDP-MP) (Leishmania infantum)
Assay: SEC; Superdex 200 10/300 GL, 50 mM Tris-HCl pH 7.5, 1 M NaCl, 1 mM DTT, 10% glycerol; concentrated Ni-NTA fractions loaded; sizes estimated from elution volumes against standard proteins

Q: With “recombinant L. infantum GDP-mannose pyrophosphorylase (LiGDP-MP) (enzyme)” as the substance, how does the stoichiometry N read?
A: The stoichiometry N was 6 and 3.
